Test results from patent US20260209345A1 (IOMX THERAPEUTICS, published 2026).

Experiments:
[1] = molecular target: T1, recombinant LILRB2 ECD (human, UniProt Q8N423 22-460); assay: competition ELISA (Example 3): biotinylated LILRB2 ECD with avidin-HRP pre-incubated with antibody 0.1-100 nM, residual binding to coated B2M-HLA-G-mouse IgG2a-Fc; blocked ligand HLA-G
T1 construct: also called biotinylated LILRB2 ECD

[2] = molecular target: T1, recombinant LILRB2 ECD; assay: ELISA, LILRB2 ECD binding to HLA-G-Fc
Protocol: (§1) HLA-G inhibition was tested by ELISA. 384-well Maxisorp plates were coated with 2 ug/mL B2M-HLA-G fused to a mouse IgG2a-Fc and the plates were blocked with 2% (w/v) BSA in PBST. […] 15 ul of the antibody dilution series (300 nM to 0.3 nM) were mixed with 30 μL of the pre-mixed LILRB/Avidin-HRP solution (final antibody concentration 100 nM to 0.1 nM) and incubated for 1 h at room temperature. After three wash cycles with PBST, 20 μL of the antibody/LILRB/Avidin-HRP solution was transferred to the plate with immobilized HLA-G and incubated for 15 min at room temperature. After three wash cycles with PBST, residual LILRB binding to HLA-G was detected by developing the ELISA with TMB substrate.

[3] = molecular target: LILRA1 on transiently transfected Expi293 cells (human) (UniProt O75019); assay: flow cytometry, transfected Expi293 cells
[4] = molecular target: LILRB1 on transiently transfected Expi293 cells (human) (UniProt Q8NHL6); assay: flow cytometry, transfected Expi293 cells
[5] = molecular target: LILRB2 on transiently transfected Expi293 cells (human) (UniProt Q8N423); assay: flow cytometry, transfected Expi293 cells
[6] = molecular target: LILRA3 on transiently transfected Expi293 cells (human) (UniProt Q8N6C8); assay: flow cytometry, transfected Expi293 cells
[7] = molecular target: T2, recombinant LILRA1 ECD (human, UniProt O75019 17-461); assay: BLI, IgG on AHC sensor, ECD in solution
T2 construct: whole canonical entry named; also called LILA1
Protocol: (§2) Briefly, IgGs were captured on anti-human capture (AHC) biosensors (Sartorius). […] Subsequently, the sensors were dipped into 1× Kinetics Buffer to measure the dissociation over 420 s. All sensorgrams were double referenced against 1× Kinetics Buffer and unloaded […] sensors to subtract sensor drifts and potential reference binding of the analytes. The affinities were determined by applying a 1:1 binding model.

[8] = molecular target: T3, recombinant LILRB1 ECD (human, UniProt Q8NHL6 24-461); assay: BLI, IgG on AHC sensor, ECD in solution
T3 construct: also called biotinylated LILRB1 ECD
Protocol: as §2

[9] = molecular target: T4, recombinant LILRA3 (human, UniProt Q8N6C8 24-439); assay: BLI, IgG on AHC sensor, ECD in solution
T4 construct: whole entry named; also called LILRA3 ECD; LILA3
Protocol: as §2

[10] = molecular target: T1, recombinant LILRB2 ECD; assay: BLI, IgG on AHC sensor, ECD in solution
Protocol: as §2

[11] = molecular target: LILRB2 on Jurkat reporter cells (ILT4/HLA-G Blockade Bioassay Kit, Promega) (human) (UniProt Q8N423); assay: cell-based or functional assay
[12] = molecular target: T3, recombinant LILRB1 ECD; assay: ELISA, LILRB1 ECD binding to HLA-G-Fc
Protocol: as §1

[13] = molecular target: LILRB2 on primary monocytes (human) (UniProt Q8N423); assay: flow cytometry, primary monocytes
[14] = molecular target: T2, recombinant LILRA1 ECD; assay: BLI, IgG on AHC sensor, ECD in solution; biochemical assay, monovalent KD on recombinant protein (Table 2): weak off-target binding, 962 nM
Protocol: as §2

[15] = molecular target: LILRB1 on transiently transfected Expi293 cells (human, UniProt Q8NHL6 24-650); assay: flow cytometry, transfected Expi293 cells
Protocol: (§3) Non-transfected Expi293 cells were used as negative control. Cells were harvested and labeled with CellTraceViolet for multiplexing. […] Subsequently, cells were washed and stained with a secondary anti-human IgG labeled with AF647 for 30 minutes at 4° C. in the dark. Cells were washed again and mixed with 7-AAD viability dye before flow acquisition to test for surface binding.

[16] = molecular target: LILRB2 on transiently transfected Expi293 cells (human, UniProt Q8N423 22-597); assay: flow cytometry, transfected Expi293 cells
Protocol: as §3

[17] = molecular target: T5, LILRA2 on transiently transfected Expi293 cells (human, UniProt Q8N149 24-483); assay: flow cytometry, transfected Expi293 cells
T5 construct: whole, on cells
Protocol: as §3

[18] = molecular target: T4, recombinant LILRA3; assay: BLI, IgG on AHC sensor, ECD in solution; biochemical assay, monovalent KD on recombinant protein (Table 2): weak off-target binding, 575 nM
Protocol: as §2

T2 sequence (O75019 17-461 limits assumed): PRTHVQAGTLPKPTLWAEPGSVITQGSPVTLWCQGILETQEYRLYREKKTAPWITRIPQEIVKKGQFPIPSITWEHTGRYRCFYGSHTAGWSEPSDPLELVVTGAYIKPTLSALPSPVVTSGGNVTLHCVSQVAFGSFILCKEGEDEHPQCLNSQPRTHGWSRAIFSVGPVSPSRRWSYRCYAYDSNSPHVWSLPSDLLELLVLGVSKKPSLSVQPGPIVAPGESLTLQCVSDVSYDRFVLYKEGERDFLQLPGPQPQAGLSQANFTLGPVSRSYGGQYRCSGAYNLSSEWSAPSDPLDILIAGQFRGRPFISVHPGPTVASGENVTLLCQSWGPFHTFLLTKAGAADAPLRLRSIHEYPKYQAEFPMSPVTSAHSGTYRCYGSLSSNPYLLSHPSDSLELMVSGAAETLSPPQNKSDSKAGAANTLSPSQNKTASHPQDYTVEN
T1 sequence (Q8N423 22-460 limits assumed): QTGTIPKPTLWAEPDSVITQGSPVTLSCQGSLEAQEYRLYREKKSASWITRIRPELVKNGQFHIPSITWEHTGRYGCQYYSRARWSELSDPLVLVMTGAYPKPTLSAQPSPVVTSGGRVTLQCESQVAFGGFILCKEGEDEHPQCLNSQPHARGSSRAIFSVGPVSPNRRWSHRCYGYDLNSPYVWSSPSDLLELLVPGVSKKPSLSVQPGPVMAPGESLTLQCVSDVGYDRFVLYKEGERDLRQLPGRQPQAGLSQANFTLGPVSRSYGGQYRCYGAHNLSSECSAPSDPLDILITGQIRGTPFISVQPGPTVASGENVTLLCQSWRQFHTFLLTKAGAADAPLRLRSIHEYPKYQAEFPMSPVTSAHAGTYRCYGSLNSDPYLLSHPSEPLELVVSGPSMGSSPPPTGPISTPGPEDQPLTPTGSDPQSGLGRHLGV
T3 sequence (Q8NHL6 24-461 limits assumed): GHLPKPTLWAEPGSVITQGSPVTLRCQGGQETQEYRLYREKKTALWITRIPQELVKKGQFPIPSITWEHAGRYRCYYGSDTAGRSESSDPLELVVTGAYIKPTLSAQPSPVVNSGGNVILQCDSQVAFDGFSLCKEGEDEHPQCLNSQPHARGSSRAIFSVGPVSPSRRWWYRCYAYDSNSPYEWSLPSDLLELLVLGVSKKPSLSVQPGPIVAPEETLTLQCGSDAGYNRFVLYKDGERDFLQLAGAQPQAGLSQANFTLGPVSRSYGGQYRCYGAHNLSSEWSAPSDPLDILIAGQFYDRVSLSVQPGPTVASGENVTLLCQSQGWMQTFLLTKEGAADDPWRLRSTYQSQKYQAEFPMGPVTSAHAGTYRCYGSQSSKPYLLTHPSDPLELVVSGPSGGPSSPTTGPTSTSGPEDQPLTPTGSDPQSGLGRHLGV
T4 sequence (Q8N6C8 24-439 limits assumed): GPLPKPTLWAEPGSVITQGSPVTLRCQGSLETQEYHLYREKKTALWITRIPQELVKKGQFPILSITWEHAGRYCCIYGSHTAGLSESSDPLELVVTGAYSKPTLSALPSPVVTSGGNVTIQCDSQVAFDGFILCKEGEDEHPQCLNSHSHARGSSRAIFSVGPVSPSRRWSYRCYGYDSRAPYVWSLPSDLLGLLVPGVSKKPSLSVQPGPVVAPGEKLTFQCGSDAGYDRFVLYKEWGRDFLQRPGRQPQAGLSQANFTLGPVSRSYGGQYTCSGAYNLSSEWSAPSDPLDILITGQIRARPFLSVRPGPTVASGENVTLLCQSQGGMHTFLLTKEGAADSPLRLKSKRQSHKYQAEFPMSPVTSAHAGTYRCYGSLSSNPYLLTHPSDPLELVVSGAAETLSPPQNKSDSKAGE
Sequence of LILRB2 on transiently transfected Expi293 cells (human) (Q8N423 22-597 limits assumed): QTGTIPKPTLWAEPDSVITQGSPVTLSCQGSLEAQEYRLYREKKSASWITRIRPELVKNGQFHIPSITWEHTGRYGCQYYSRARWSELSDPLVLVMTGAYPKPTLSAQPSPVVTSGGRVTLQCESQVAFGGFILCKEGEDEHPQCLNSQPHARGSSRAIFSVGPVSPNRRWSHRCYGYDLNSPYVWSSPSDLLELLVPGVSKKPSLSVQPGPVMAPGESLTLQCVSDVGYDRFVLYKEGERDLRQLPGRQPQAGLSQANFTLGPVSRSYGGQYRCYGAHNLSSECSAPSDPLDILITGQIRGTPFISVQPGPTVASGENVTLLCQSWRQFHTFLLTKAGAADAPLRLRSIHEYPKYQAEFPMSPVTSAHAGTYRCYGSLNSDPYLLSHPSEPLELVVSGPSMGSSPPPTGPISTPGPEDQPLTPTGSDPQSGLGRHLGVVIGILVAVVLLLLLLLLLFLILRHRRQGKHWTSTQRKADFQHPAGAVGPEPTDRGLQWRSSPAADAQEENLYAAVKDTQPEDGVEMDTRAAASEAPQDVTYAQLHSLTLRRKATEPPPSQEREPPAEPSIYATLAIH
Sequence of LILRA1 on transiently transfected Expi293 cells (human) (O75019 17-489 limits assumed): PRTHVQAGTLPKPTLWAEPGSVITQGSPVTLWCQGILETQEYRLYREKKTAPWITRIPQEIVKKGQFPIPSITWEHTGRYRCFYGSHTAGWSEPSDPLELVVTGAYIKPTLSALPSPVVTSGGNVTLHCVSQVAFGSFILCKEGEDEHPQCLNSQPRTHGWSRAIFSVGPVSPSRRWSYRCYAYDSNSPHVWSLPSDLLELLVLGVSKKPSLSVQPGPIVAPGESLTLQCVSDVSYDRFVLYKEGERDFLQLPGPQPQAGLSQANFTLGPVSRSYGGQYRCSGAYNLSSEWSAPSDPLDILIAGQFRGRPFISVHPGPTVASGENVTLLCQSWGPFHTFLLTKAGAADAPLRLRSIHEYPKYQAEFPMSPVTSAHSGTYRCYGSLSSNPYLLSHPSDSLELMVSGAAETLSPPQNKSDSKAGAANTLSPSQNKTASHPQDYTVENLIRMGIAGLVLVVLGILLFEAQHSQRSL
T5 sequence (Q8N149 24-483): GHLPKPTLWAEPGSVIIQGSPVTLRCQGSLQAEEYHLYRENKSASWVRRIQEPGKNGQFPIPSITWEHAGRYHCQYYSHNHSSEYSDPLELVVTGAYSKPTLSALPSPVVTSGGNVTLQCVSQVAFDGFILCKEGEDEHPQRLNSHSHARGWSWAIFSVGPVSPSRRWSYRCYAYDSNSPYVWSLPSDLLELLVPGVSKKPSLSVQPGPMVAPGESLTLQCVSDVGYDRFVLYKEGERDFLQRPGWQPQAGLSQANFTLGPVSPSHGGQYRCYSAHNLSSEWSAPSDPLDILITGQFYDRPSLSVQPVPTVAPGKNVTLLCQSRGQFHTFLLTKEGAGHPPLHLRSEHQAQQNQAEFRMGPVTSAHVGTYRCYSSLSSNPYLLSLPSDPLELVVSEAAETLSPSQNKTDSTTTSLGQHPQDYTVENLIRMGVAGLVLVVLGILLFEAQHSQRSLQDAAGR
Sequence of LILRB1 on transiently transfected Expi293 cells (human) (Q8NHL6 24-650 limits assumed): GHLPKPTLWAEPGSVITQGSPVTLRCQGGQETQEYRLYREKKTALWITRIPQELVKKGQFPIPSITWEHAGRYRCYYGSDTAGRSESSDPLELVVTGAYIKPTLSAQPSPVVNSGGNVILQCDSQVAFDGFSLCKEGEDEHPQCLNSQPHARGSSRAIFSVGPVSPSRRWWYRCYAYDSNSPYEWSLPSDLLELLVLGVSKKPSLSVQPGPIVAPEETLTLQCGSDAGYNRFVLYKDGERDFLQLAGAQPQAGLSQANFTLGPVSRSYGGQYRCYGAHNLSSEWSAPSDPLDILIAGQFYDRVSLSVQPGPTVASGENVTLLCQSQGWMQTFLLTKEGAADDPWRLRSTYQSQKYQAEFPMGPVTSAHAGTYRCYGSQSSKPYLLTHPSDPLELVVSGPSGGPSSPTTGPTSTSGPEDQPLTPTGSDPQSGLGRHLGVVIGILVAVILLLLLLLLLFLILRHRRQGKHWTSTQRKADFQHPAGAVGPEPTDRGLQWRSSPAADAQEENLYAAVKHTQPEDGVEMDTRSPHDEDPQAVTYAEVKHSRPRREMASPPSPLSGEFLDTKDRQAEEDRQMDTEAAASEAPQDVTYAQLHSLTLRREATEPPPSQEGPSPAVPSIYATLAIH
Sequence of LILRB1 on transiently transfected Expi293 cells (Q8NHL6 24-650 limits assumed): as above
Sequence of LILRB2 on Jurkat reporter cells (ILT4/HLA-G Blockade Bioassay Kit, Promega) (human) (Q8N423 22-597 limits assumed): as the sequence (Q8N423 22-597 limits assumed) above
Sequence of LILRB2 on transiently transfected Expi293 cells (Q8N423 22-597 limits assumed): as above
Sequence of LILRB2 on primary monocytes (human) (Q8N423 22-597 limits assumed): as above
Sequence of LILRA3 on transiently transfected Expi293 cells (human) (Q8N6C8 24-439 limits assumed): as the sequence (Q8N6C8 24-439 limits assumed) above

IC50 [2] [nM]	Kd [7] [nM]	Kd [8] [nM]	Kd [9] [nM]	Kd [10] [nM]	IC50 [12] [nM]	Molecule	other results
						Ref065 [IO-108, LILRB2 specific] (antibody)	IC50 (read off the curve) [1]: 3 nM
4.7	0.6	0.5	1.4	0.4	5.7	Ref062 [NGM707, cross-specific] (antibody, from another filing, V domains shown) VH: QVQLVQSGAEVKKPGASVKVSCKASGYTFTDYYINWVRQAPGQGLEWMGNVNPNDGGTTYNQKFKGRVTMTTDTSTSTAYMELRSLRSDDTAVYYCARREIYFYGTIYYYAMDYWGQGTLVTVSS VL: DIQLTQSPSFLSASVGDRVTITCRASESVDYYGNSFMYWYQQKPGKAPKLLIYFASNLESGVPSRFSGSGSGTEFTLTISSLQPEDFATYYCQQNNEDPWTFGGGTKVEIKR	EC50 [3]: 3.7 nM; EC50 [4]: 9.1 nM; EC50 [5]: 17.3 nM; EC50 [6]: 7.8 nM; luminescence of LILRB2-expressing Jurkat reporter cells with HLA-G expressing APC/CHO-K1 cells (ILT4/HLA-G Blockade Bioassay) [11]: 0.9 nM
3.1				3.4		Ref047 [MK-4830, LILRB2 specific] (antibody, from another filing, V domains shown) VH: EVQLQQWGAGLLKPSETLSLTCAVYGGSFSGYYWSWIRQPPGKGLEWIGEINHAGSTNYNPSLKSRVTISVDTSKNQFSLKLSSVTAADTAVYYCARLPTRWVTTRYFDLWGRGTLVTVSS VL: ESVLTQPPSVSGAPGQRVTISCTGSSSNIGAGYDVHWYQQLPGTAPKLLIYGDSNRPSGVPDRFSVSKSGASASLAITGLQAEDEADYYCQSFDNSLSAYVFGGGTQLTVL	EC50 [13]: 1 nM; EC50 [5]: 1.7 nM
3.5		2.3		2.8	2.1	A-045 (antibody, V domains shown, tested as IgG; HC of A-010 and LC of A-036) VH: QVQLVQSGAEVKKPGSSVKVSCKASGGTFQSQAFAWVRQAPGQGLEWMGSIIPGFSTANYAQKFQGRVTITADESTSTAYMELSSLRSEDTAVYYCAKDLGTYSSGWPYYYGMDVWGQGTTVTVSS VL: SYELTQPPSVSVSPGQTASITCSGDKLGDKYASWYQQKPGQSPVLVIYQDSKRPSGIPERFSGSNSGNTATLTISGTQAEDEADYYCQLTHLTIYVFGGGTKLTVL	Kd [14]: 962 nM; EC50 [15]: 1.5 nM; EC50 [16]: 1.3 nM; binding result [17]: no binding; Kd [18]: 575 nM
8.6	23	0.5	84.8	1.4	8.3	A-033 (antibody, V domains shown, tested as IgG) VH: QVQLVQSGAEVKKPGSSVKVSCKASGYTFSSHAMSWVRQAPGQGLEWMGGIIPTFKTAVFAQKFQGRVTITADESTSTAYMELSSLRSEDTAVYYCAKGPPVGSSSWYTDWYFDLWGRGTLVTVSS VL: SYELTQPPSVSVSPGQTASITCSGDKLGDKYASWYQQKPGQSPVLVIYQDSKRPSGIPERFSGSNSGNTATLTISGTQAEDEADYYCLSYGAHSHGVVFGGGTKLTVL	
4.6	128	2.6	318	1.7	1.9	A-047 (antibody, V domains shown, tested as IgG) VH: QVQLVQSGAEVKKPGSSVKVSCKASGYTFSKSAMSWVRQAPGQGLEWMGGIVPKFHTSVYAQKFQGRVTITADESTSTAYMELSSLRSEDTAVYYCAKGPPVGSSSWYTDWYFDLWGRGTLVTVSS VL: SYELTQPPSVSVSPGQTASITCSGDKLGDKYASWYQQKPGQSPVLVIYQDSKRPSGIPERFSGSNSGNTATLTISGTQAEDEADYYCSLYGAGHTVVFGGGTKLTVL	
3.4	209	6.7	448	4.8	2.2	A-038 (antibody, V domains shown, tested as IgG) VH: QVQLVQSGAEVKKPGSSVKVSCKASGGTFSSYAISWVRQAPGQGLEWMGGIIPIFGTANYAQKFQGRVTITADESTSTAYMELSSLRSEDTAVYYCAKGPPVGSSSWYTDWYFDLWGRGTLVTVSS VL: SYELTQPPSVSVSPGQTASITCSGDKLGDKYASWYQQKPGQSPVLVIYQDSKRPSGIPERFSGSNSGNTATLTISGTQAEDEADYYCSLYGAGHTVVFGGGTKLTVL	
4.1	1070	8.7	1970	5.6	2	A-048 (antibody, V domains shown, tested as IgG) VH: QVQLVQSGAEVKKPGSSVKVSCKASGYTFSKSAMSWVRQAPGQGLEWMGGIVPKFHTSVYAQKFQGRVTITADESTSTAYMELSSLRSEDTAVYYCAKGPPVGSSSWYTDWYFDLWGRGTLVTVSS VL: SYELTQPPSVSVSPGQTASITCSGDKLGDKYASWYQQKPGQSPVLVIYQDSKRPSGIPERFSGSNSGNTATLTISGTQAEDEADYYCALYGGGHTVVFGGGTKLTVL	
2.4	1030	21.6	1550	13.7	2	A-039 (antibody, V domains shown, tested as IgG) VH: QVQLVQSGAEVKKPGSSVKVSCKASGGTFSSYAISWVRQAPGQGLEWMGGIIPIFGTANYAQKFQGRVTITADESTSTAYMELSSLRSEDTAVYYCAKGPPVGSSSWYTDWYFDLWGRGTLVTVSS VL: SYELTQPPSVSVSPGQTASITCSGDKLGDKYASWYQQKPGQSPVLVIYQDSKRPSGIPERFSGSNSGNTATLTISGTQAEDEADYYCALYGGGHTVVFGGGTKLTVL	
7	51.6	6.6	345	0.3	2.1	A-040 (antibody, V domains shown, tested as IgG) VH: QVQLVQSGAEVKKPGSSVKVSCKASGGTFSSYAISWVRQAPGQGLEWMGGIIPIFGTANYAQKFQGRVTITADESTSTAYMELSSLRSEDTAVYYCAKGPPVGSSSWYTDWYFDLWGRGTLVTVSS VL: SYELTQPPSVSVSPGQTASITCSGDKLGDKYASWYQQKPGQSPVLVIYQDSKRPSGIPERFSGSNSGNTATLTISGTQAEDEADYYCSLYGPAHTGVFGGGTKLTVL	
4.4	242	17.5	465	5.8	1.5	A-041 (antibody, V domains shown, tested as IgG) VH: QVQLVQSGAEVKKPGSSVKVSCKASGGTFSSYAISWVRQAPGQGLEWMGGIIPIFGTANYAQKFQGRVTITADESTSTAYMELSSLRSEDTAVYYCAKGPPVGSSSWYTDWYFDLWGRGTLVTVSS VL: SYELTQPPSVSVSPGQTASITCSGDKLGDKYASWYQQKPGQSPVLVIYQDSKRPSGIPERFSGSNSGNTATLTISGTQAEDEADYYCSSYGSGLTVVFGGGTKLTVL	
